Reference: paper doi:10.1101/452904 (bioRxiv, 2018)

Biological target: FLAG-Sec23A (human, UniProt Q15436 1-765)
Assay: pull-down

Sequence of FLAG-Sec23A (Q15436 whole entry): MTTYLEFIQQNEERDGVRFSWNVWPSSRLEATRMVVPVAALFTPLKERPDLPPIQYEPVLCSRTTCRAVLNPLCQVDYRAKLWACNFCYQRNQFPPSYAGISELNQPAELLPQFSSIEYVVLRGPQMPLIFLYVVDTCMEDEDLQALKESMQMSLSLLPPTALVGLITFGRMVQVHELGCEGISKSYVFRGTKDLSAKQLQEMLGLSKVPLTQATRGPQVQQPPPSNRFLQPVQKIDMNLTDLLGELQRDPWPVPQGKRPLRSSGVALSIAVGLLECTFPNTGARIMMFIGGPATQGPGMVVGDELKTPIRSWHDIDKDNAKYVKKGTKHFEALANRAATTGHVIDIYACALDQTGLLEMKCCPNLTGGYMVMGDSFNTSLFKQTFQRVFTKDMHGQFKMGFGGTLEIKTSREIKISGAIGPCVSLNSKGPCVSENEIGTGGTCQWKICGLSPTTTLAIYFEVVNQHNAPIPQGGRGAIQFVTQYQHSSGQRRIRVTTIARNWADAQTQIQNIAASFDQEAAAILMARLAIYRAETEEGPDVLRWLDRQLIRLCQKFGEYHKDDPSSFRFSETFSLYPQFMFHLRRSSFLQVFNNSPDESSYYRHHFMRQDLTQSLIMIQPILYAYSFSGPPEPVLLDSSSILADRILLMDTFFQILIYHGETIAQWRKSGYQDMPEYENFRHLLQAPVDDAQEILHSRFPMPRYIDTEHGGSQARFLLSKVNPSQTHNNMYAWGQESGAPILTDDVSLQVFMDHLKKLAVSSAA

binding result: binds
B1: GST-tagged TANGO1-PRD (1651–1907 aa)-His6 (domain or fragment)
chain: NTQNPPRRGPLSQNGSFGPSPVSGGECSPPLTVEPPVRPLSATLNRRDMPRSEFGSVDGPLPHPRWSAEASGKPSPSDPGSGTATMMNSSSRGSSPTRVLDEGKVNMAPKGPPPFPGVPLMSTPMGGPVPPPIRYGPPPQLCGPFGPRPLPPPFGPGMRPPLGLREFAPGVPPGRRDLPLHPRGFLPGHAPFRPLGSLGPREYFIPGTRLPPPTHGPQEYPPPPAVRDLLPSGSRDEPPPASQSTSQDCSQALKQSP
